Experimental data taken from patent publication US20260091143A1, “NEAR-INFRARED IMAGING AGENT AND USES THEREOF” (CASE WESTERN RESERVE UNIVERSITY, priority 2022, published 2026).
Where a SMILES comes first, the peptide text is derived from it. Where no end group is shown, it is not given here. The star is where a group is joined. X1 = CC1(C)C(/C=C/C=C/C=C/C=C2/N(CCCCCC(=O)*)c3ccc4ccccc4c3C2(C)C)=[N+](CCCCS(=O)(=O)[O-])c2ccc3ccccc3c21; Tide Fluor 8WS = fluorophore acid, coupled by amide to the N-terminal amine

How the values were obtained:
[1] = Ex vivo fluorescence in excised kidneys, spleen and liver; parameters: species or system mice; details: 24 h; for p-value, average radiant efficiency of excised kidney vs SBK2-CLE-ICG / p-value, average radiant efficiency of excised kidney vs Scram-CLE-ICG / p-value, average radiant efficiency of excised kidney vs Scram-ICG / p-value, average radiant efficiency of excised liver vs SBK2-CLE-ICG / p-value, average radiant efficiency of excised liver vs Scram-CLE-ICG / p-value, average radiant efficiency of excised liver vs Scram-ICG / p-value, average radiant efficiency of excised spleen vs SBK2-CLE-ICG / p-value, average radiant efficiency of excised spleen vs Scram-CLE-ICG / p-value, average radiant efficiency of excised spleen vs Scram-ICG / p-value, average radiant efficiency of excised kidney vs SBK2-ICG / p-value, average radiant efficiency of excised liver vs SBK2-ICG / p-value, average radiant efficiency of excised spleen vs SBK2-ICG: ICG-labeled agents 300 nmol/kg, ICG 400 nmol/kg, Welch's t-test
From the text: (§1) The IVIS Spectrum In vivo Imaging System and Living Image analysis software, (Perkin Elmer, Hopkinton, MA, USA) were used for acquisition and analysis of mouse images. Prior to the experiment, mice were weighed, and baseline images acquired using the appropriate filter sets and the autoexposure setting. Three filter sets for excitation/emission were used: 745 nm/800 nm, 745 nm/820 nm, 745 nm/840 nm. The filter set showing highest fluorescence intensity for a fluorophore was used throughout for that dye. For ICG, 745 nm/820 nm was used and for IRDye® 800CW and Tide Fluor™ 8WS, 745 nm/800 nm was used. Agent stocks were diluted in saline or PBS to ˜100 μM and the volume needed for the desired dose of 300 nmol/kg or 400 nmol/kg calculated. Doses were loaded into polyurethane tubing and connected to a 1 mL syringe as previously described. Mice were anesthetized in an induction chamber with 2% isoflurane-oxygen and moved onto a 37° C. heated platform with a nose cone. 26-gauge veterinary catheters were placed in each tail and the preloaded tubing was connected. Agents were injected over 30 sec, catheters were removed, and animals placed in the prepared Spectrum imaging chamber. Images were acquired beginning 10 min after injecting the agents. For SBK2-CCLE-IR800 and Scram-CCLE-IR800, images were acquired every 10 min for 60 min. For the ICG-labeled and TF8WS-labeled peptides, images were acquired at 10 min, 30 min, 1 h, 2 h, 4 h, 8 h, and 24 h. At the end of the imaging time, the animals were euthanized by CO2 asphyxiation, and the tumor and other organs excised and imaged on the Spectrum.
(§2) Living Image analysis software was used for region of interest (ROI) analysis of the optical data. Images acquired for each time point consist of a fluorescent image superimposed on a photographic image. Binning was set to 1 and in vivo tumor ROIs were manually drawn based on contours visible in the black and white photograph for each timepoint. After outlining the tumor ROIs, fluorescence was measured with the built-in Spectrum function. For excised tumors, kidneys, spleen and liver, ROIs were drawn around the perimeter of the tumor or organ.
(§3) LivingImage software measures fluorescence intensity in units of radiant efficiency. For these analyses, average radiant efficiency measurements in (photons/s/cm^2/steradian)/(μW/cm^2) were used for further comparisons to account for differences in tumor and organ size. GraphPad Prism 9 was used for plots and statistical analyses. Where indicated, means for pairs of agents were compared using a two-tailed t-test with Welch's correction and statistical significance was assumed at p<0.05. Welch's correction was used to eliminate assumptions about variance between the groups being compared.

[2] = system: LN-229 glioma flank tumor; assay: In vivo fluorescent imaging of tumor signal in LN-229 flank tumor-bearing nude mice; details: 400 nmol/kg
From the text: All applicable institutional and/or NIH guidelines for the care and use of animals were followed. The Case Western Reserve University Institutional Animal Care and Use Committee reviewed and approved the animal protocols. Outbred homozygous female nude mice (Fox1^nu/Fox1^nu) were purchased from Jackson Laboratory, Bar Harbor, ME, USA. Details of the human glioblastoma LN-229 cell line have been described previously. LN-229 cells express the PTPμ biomarker and have been used in previous studies for evaluating PTPμ-targeted agents using different imaging modalities. Flank tumors were started in the right flank of mice at approximately 7 weeks of age by injecting a mixture of 2×10^6 cells and Matrigel® Matrix (Corning®, Corning Inc., Corning, NY, USA). Experiments were performed in mice 4 to 8 weeks after implanting the tumors.
as §1, §2, §3

[3] = Whole-body and ventral fluorescent imaging of biodistribution and clearance; assay type: in vivo, mice
From the text: as §1

Row | Compound | p-value, average radiant efficiency of excised kidney vs SBK2-CLE-ICG [1] | p-value, average radiant efficiency of excised kidney vs Scram-CLE-ICG [1] | p-value, average radiant efficiency of excised kidney vs Scram-ICG [1] | p-value, average radiant efficiency of excised liver vs SBK2-CLE-ICG [1] | p-value, average radiant efficiency of excised liver vs Scram-CLE-ICG [1] | p-value, average radiant efficiency of excised liver vs Scram-ICG [1] | p-value, average radiant efficiency of excised spleen vs SBK2-CLE-ICG [1] | p-value, average radiant efficiency of excised spleen vs Scram-CLE-ICG [1] | p-value, average radiant efficiency of excised spleen vs Scram-ICG [1] | p-value, average radiant efficiency of excised kidney vs SBK2-ICG [1] | p-value, average radiant efficiency of excised liver vs SBK2-ICG [1] | p-value, average radiant efficiency of excised spleen vs SBK2-ICG [1] | other results
1 | CC(C)C[C@H](NC(=O)[C@@H](NC(=O)[C@H](CC(N)=O)NC(=O)[C@@H](NC(=O)[C@H](CCC(N)=O)NC(=O)[C@H](CCC(=O)O)NC(=O)[C@H](Cc1c[nH]c2ccccc12)NC(=O)[C@H](CC(N)=O)NC(=O)[C@H](Cc1ccccc1)NC(=O)[C@H](CC(=O)O)NC(=O)[C@H](CC(=O)O)NC(=O)CNC(=O)[C@H](CCC(=O)O)NC(=O)CNC(=O)CCCCCN1/C(=C/C=C/C=C/C=C/C2=[N+](CCCCS(=O)(=O)[O-])c3ccc4ccccc4c3C2(C)C)C(C)(C)c2c1ccc1ccccc21)C(C)C)[C@@H](C)O)C(=O)N[C@H](C(=O)N[C@@H](CCCCN)C(=O)N1CCC[C@H]1C(=O)N[C@H](C(=O)N[C@@H](CO)C(=O)N[C@@H](CC(=O)O)C(=O)O)[C@@H](C)O)[C@@H](C)O [SBK2-ICG] (X1-GEGDDFNWEQVNTLTKPTSD-OH) | <0.001 | <0.001 | <0.001 | <0.001 | <0.001 | <0.001 | <0.001 | <0.001 | <0.001 |  |  |  | 
2 | SBK2-TF8WS: Tide Fluor 8WS conjugated via amide to N-terminus of SBK2 peptide (SEQ ID NO: 5) ({Tide Fluor 8WS}-GEGDDFNWEQVNTLTKPTSD) |  |  |  |  |  |  |  |  |  |  |  |  | tumor signal at 24 h (not specific for PTPμ) [2]: high tumor-specific signal; difference in in vivo tumor average radiant efficiency vs Scram-TF8WS ([2]; at any time out to 24 h): No significant differences; specific tumor labeling ([2]; versus Scrambled control agents): no specific tumor labeling; difference in average radiant efficiency in kidney, spleen, or liver vs Scram-TF8WS ([1]; 400 nmol/kg): no significant differences
3 | CC(C)C[C@H](NC(=O)[C@H](CC(=O)O)NC(=O)[C@H](CC(N)=O)NC(=O)[C@H](CC(=O)O)NC(=O)[C@@H](NC(=O)CNC(=O)[C@@H](NC(=O)[C@H](CCC(=O)O)NC(=O)[C@@H]1CCCN1C(=O)[C@H](CCC(N)=O)NC(=O)[C@@H](NC(=O)[C@H](Cc1ccccc1)NC(=O)CNC(=O)CCCCCN1/C(=C/C=C/C=C/C=C/C2=[N+](CCCCS(=O)(=O)[O-])c3ccc4ccccc4c3C2(C)C)C(C)(C)c2c1ccc1ccccc21)[C@@H](C)O)[C@@H](C)O)[C@@H](C)O)C(=O)N[C@@H](Cc1c[nH]c2ccccc12)C(=O)N[C@@H](CO)C(=O)N[C@H](C(=O)N[C@@H](CC(=O)O)C(=O)N[C@@H](CC(N)=O)C(=O)N[C@@H](CCC(=O)O)C(=O)N[C@@H](CCCCN)C(=O)O)C(C)C [Scram-ICG] (X1-GFTQPETGTDNDLWSVDNEK-OH) | ns | ns |  | ns | ns |  | ns | ns |  | <0.001 | <0.001 | <0.001 | clearance compared to either of the CLE-containing agents ([3]; 400 nmol/kg, 24 h): clear more slowly
4 | CC1(C)C(=CC=C2CCCC(C=CC3=[N+](CCCCCC(=O)[O-])c4ccc(S(=O)(=O)[O-])cc4C3(C)C)=C2Oc2ccc(S(=O)(=O)[O-])cc2)N(CCCCS(=O)(=O)[O-])c2ccc(S(=O)(=O)[O-])cc21.[Na+].[Na+].[Na+].[Na+] [IRDye® 800CW] |  |  |  |  |  |  |  |  |  |  |  |  | clearance compared to the peptide-containing agents ([3]; dye only, data not shown): cleared more slowly; overall body fluorescence compared to IRDye 800CW-labeled peptides at the same dose ([3]; dye only, data not shown): more overall fluorescence throughout the body
5 | CC(C)C[C@H](NC(=O)[C@@H](NC(=O)[C@H](CC(N)=O)NC(=O)[C@@H](NC(=O)[C@H](CCC(N)=O)NC(=O)[C@H](CCC(=O)O)NC(=O)[C@H](Cc1c[nH]c2ccccc12)NC(=O)[C@H](CC(N)=O)NC(=O)[C@H](Cc1ccccc1)NC(=O)[C@H](CC(=O)O)NC(=O)[C@H](CC(=O)O)NC(=O)CNC(=O)[C@H](CCC(=O)O)NC(=O)CNC(=O)[C@H](CO)NC(=O)CNC(=O)CNC(=O)[C@H](CO)NC(=O)CNC(=O)CNC(=O)CCCCCN1/C(=C/C=C/C=C/C=C/C2=[N+](CCCCS(=O)(=O)[O-])c3ccc4ccccc4c3C2(C)C)C(C)(C)c2c1ccc1ccccc21)C(C)C)[C@@H](C)O)C(=O)N[C@H](C(=O)N[C@@H](CCCCN)C(=O)N1CCC[C@H]1C(=O)N[C@H](C(=O)N[C@@H](CO)C(=O)N[C@@H](CC(=O)O)C(=O)O)[C@@H](C)O)[C@@H](C)O [SBK2-CLE-ICG] (X1-GGSGGSGEGDDFNWEQVNTLTKPTSD-OH) |  | 0.034 | ns |  | ns | ns |  | 0.015 | ns | <0.001 | <0.001 | <0.001 | clearance compared to SBK2-ICG ([3]; mouse, in vivo): cleared more rapidly
6 | CC(C)C[C@H](NC(=O)[C@H](CC(=O)O)NC(=O)[C@H](CC(N)=O)NC(=O)[C@H](CC(=O)O)NC(=O)[C@@H](NC(=O)CNC(=O)[C@@H](NC(=O)[C@H](CCC(=O)O)NC(=O)[C@@H]1CCCN1C(=O)[C@H](CCC(N)=O)NC(=O)[C@@H](NC(=O)[C@H](Cc1ccccc1)NC(=O)CNC(=O)[C@H](CO)NC(=O)CNC(=O)CNC(=O)[C@H](CO)NC(=O)CNC(=O)CNC(=O)CCCCCN1/C(=C/C=C/C=C/C=C/C2=[N+](CCCCS(=O)(=O)[O-])c3ccc4ccccc4c3C2(C)C)C(C)(C)c2c1ccc1ccccc21)[C@@H](C)O)[C@@H](C)O)[C@@H](C)O)C(=O)N[C@@H](Cc1c[nH]c2ccccc12)C(=O)N[C@@H](CO)C(=O)N[C@H](C(=O)N[C@@H](CC(=O)O)C(=O)N[C@@H](CC(N)=O)C(=O)N[C@@H](CCC(=O)O)C(=O)N[C@@H](CCCCN)C(=O)O)C(C)C [Scram-CLE-ICG] (X1-GGSGGSGFTQPETGTDNDLWSVDNEK-OH) | 0.034 |  | ns | ns |  | ns | 0.015 |  | ns | <0.001 | <0.001 | <0.001 | 
7 | Scram-TF8WS: Tide Fluor 8WS conjugated to N-terminus of Scrambled control peptide (SEQ ID NO: 48) ({Tide Fluor 8WS}-GFTQPETGTDNDLWSVDNEK) |  |  |  |  |  |  |  |  |  |  |  |  | tumor signal at 24 h (not specific for PTPμ) [2]: high tumor-specific signal
